{"source": "patent US20210009963A1", "about": "(LYSENTECH, published 2021)", "binders": {"B1": {"name": "grp78 on B16F10 mouse melanoma cells (receptor)", "chain": "not shown", "notes": "whole, on cells; The assay was done on whole B16F10 cells; also called receptor for pep42; B16F10 cells"}}, "molecular_target": "T1, wild type bacteriophage T7 (bacteriophage T7, UniProt P19726 1-345; P19727 1-398)", "T1 construct": "Whole phage particle without a homing peptide, used as the control; also called WT T7; wild type T7", "T1 sequence 1": "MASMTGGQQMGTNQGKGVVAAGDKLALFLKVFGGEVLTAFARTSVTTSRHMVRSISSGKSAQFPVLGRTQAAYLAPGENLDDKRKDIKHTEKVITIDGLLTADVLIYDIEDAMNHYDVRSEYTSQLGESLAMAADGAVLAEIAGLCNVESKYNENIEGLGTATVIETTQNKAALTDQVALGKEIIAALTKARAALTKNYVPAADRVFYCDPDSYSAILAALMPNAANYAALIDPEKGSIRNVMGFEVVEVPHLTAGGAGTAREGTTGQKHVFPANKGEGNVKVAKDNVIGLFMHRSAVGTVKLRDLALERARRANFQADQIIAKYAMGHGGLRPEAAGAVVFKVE", "T1 sequence 2": "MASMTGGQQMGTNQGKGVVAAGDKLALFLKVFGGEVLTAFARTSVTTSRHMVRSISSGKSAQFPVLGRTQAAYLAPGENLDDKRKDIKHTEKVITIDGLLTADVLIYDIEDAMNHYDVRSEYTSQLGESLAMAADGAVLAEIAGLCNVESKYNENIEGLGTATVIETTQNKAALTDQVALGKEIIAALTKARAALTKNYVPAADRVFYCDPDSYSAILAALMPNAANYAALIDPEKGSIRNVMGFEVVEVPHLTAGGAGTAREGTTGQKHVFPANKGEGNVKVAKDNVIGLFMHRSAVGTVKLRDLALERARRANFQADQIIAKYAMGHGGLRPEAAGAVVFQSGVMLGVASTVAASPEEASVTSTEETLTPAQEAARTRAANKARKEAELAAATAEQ", "experiment": "confocal fluorescence microscopy of B16F10 cells, anti-T7 antibody staining after washing"}
{"binder": "B1", "values": [{"measurement": "binding result", "result": "no binding (tested: 1×10^7 PFU of phages)"}]}
